Where a chain is given by its changes, count along the chain named. Blank lines part the entries; values can stand above or below the binder they belong to.
Columns and labels:
[1] = target: T1, EpCAM on human tumor cells (SW480, HCT116, HCT116-Luc, KATO-III, A549) (human, UniProt P16422 24-314); test: flow cytometry on SW480 cells
T1 construct: whole, on cells; also called epithelial cell adhesion molecule
T1 sequence (looked up): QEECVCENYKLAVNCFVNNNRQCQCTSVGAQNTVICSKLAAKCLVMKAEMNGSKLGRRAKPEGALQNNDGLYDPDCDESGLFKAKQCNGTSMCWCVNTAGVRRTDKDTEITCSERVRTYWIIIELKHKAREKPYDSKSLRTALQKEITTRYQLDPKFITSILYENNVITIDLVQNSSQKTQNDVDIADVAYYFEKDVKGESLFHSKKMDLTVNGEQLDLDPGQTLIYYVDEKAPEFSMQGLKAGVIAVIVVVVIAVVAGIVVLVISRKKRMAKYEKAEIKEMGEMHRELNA
Source text: (§1) The EC50 values of each recombinant antibody on SW480 and HCT116 are shown in Table 3, which are derived from FIGS. 1-4.

[2] = target: T1, EpCAM on human tumor cells (SW480, …); test: flow cytometry on HCT116 cells
Source text: as §1

EC50 [1]: 0.599 µg/mL
EC50 [2]: 0.583 µg/mL
B1: H2L1 (antibody, V domains shown)
VH: QVQLVQSGAEVKKPGASVKVSCKASGYTFTNYWINWVRQAPGQGLEWIGNIYPSYIYTNYNQEFKDKVTLTVDESTSTAYMELSSLRSEDTAVYYCTRSPYGYDEYGLDYWGQGTTVTVSS
VL: DIQLTQSPSSLSASVGDRVTMTCKSSQSLLNSRNQKNYLTWYQQKPGKAPKLLIYWASTRESGVPSRFSGSGSGTDFTLTISSVQPEDFATYYCQNDYVYPLTFGQGTKLEIK
notes: Recombinant antibody from ExpiCHO-s; the limits were counted from the printed signal peptide, linker and hinge

EC50 [1]: 0.653 µg/mL
EC50 [2]: 0.584 µg/mL
B2: H2L3 (antibody, V domains shown)
VH: B1 VH
VL: DIVLTQSPDSLAVSLGERATMNCKSSQSLLNSRNQKNYLTWYQQKPGQPPKLLIYWASTRESGVPDRFSGSGSGTDFTLTISSLQAEDVAVYYCQNDYVYPLTFGQGTKLEIK
notes: as for B1

EC50 [1]: 0.655 µg/mL
EC50 [2]: 0.584 µg/mL
B3: H2L4 (antibody, V domains shown)
VH: B1 VH
VL: EIVLTQSPATLSLSPGERATMSCKSSQSLLNSRNQKNYLTWYQQKPGQAPRLLIYWASTRESGIPARFSGSGSGTDFTLTISSLEPEDFAVYYCQNDYVYPLTFGQGTKLEIK
notes: as for B1

EC50 [1]: 0.564 µg/mL
EC50 [2]: 0.478 µg/mL
B4: H3L1 (antibody, V domains shown)
VH: B1 VH with K67R, V72R, E74T, T76I, S85R, E89D
VL: B1 VL
notes: as for B1

EC50 [1]: 0.569 µg/mL
EC50 [2]: 0.472 µg/mL
B5: H3L2 (antibody, V domains shown)
VH: B1 VH with K67R, V72R, E74T, T76I, S85R, E89D
VL: B1 VL with S32T, V84L
notes: as for B1

EC50 [1]: 0.567 µg/mL
EC50 [2]: 0.503 µg/mL
B6: H1L1 (antibody, V domains shown)
VH: B1 VH with V20L, R38K
VL: B1 VL
notes: Recombinant antibody from ExpiCHO-s; These limits were counted from the printed signal peptide, linker and hinge

EC50 [1]: 0.568 µg/mL
EC50 [2]: 0.474 µg/mL
B7: H4L1 (antibody, V domains shown)
VH: B1 VH with N61A, E63K, K65Q, D66G, K67R, V72R, E74T, A79V
VL: B1 VL
notes: as for B1

EC50 [1]: 0.631 µg/mL
EC50 [2]: 0.563 µg/mL
B8: H1L3 (antibody, V domains shown)
VH: B1 VH with V20L, R38K
VL: B2 VL
notes: as for B1

EC50 [1]: 0.675 µg/mL
EC50 [2]: 0.602 µg/mL
B9: H1L4 (antibody, V domains shown)
VH: B1 VH with V20L, R38K
VL: B3 VL
notes: as for B1

EC50 [1]: 0.449 µg/mL
EC50 [2]: 0.426 µg/mL
B10: H5L1 (antibody, V domains shown)
VH: B1 VH with K67R, L70M, V72R, E74T, T76I, S85R, E89D
VL: B1 VL
notes: as for B1

EC50 [1]: 0.595 µg/mL
EC50 [2]: 0.537 µg/mL
B11: H2L2 (antibody, V domains shown)
VH: B1 VH
VL: B1 VL with S32T, V84L
notes: as for B1

EC50 [1]: 0.542 µg/mL
EC50 [2]: 0.492 µg/mL
B12: H3L3 (antibody, V domains shown)
VH: B1 VH with K67R, V72R, E74T, T76I, S85R, E89D
VL: B2 VL
notes: as for B1

EC50 [1]: 0.581 µg/mL
EC50 [2]: 0.468 µg/mL
B13: mHmL (antibody, V domains shown)
VH: QVKLQQSGAELVRPGASVKLSCKASGYTFTNYWINWVKQRPGQGLEWIGNIYPSYIYTNYNQEFKDKVTLTVDESSSTAYMQLSSPTSEDSAVYYCTRSPYGYDEYGLDYWGQGTTVTVSS
VL: DIELTQSPSSLTVTAGEKVTMNCKSSQSLLNSRNQKNYLTWYQQKPGQPPKLLIYWASTRESGVPDRFTGSGSGTDFTLTISSVQAEDLAVYYCQNDYVYPLTFGAGTKLEIK
notes: it was captured on Protein A; also called original antibody mHmL; EpCAM antibody

Reference: patent US20230357427A1 (SHANGHAI IMMUNOHEAD BIOTECHNOLOGY, published 2023)
